Results reported in patent publication US20050287518A1 (Scripps Research, published 2005).

How the values were obtained:
[1] = target: T1, Recombinant 6His-tagged RhoA pre-equilibrated with GTPγS (UniProt P61586 1-193, limits assumed); assay: fluorescence of the solvatochromic dye on mero-CBD, in vitro
T1 construct: also called RhoA-GTPγS; not shown: 6His tag
Protocol: (§1) Analyses of the solvatochromic activation indicator—A solution of mero-CBD (300 nM) in assay buffer was mixed 1:1 (v/v) with solutions of cdc42 (concentration as indicated), pre-equilibrated with 10 mM GDP or GTPγS as described in Knaus, U. G., Heyworth, P. G., Kinsella, B. T., Cumutte, J. T., and Bokoch, G. M. (1992) J. Biol. Chem. 267, 23575-23582. Emission wavelength of 630 nm and excitation wavelength of 600 nm were used to acquire excitation and emission spectra, respectively. For nucleotide dependence, cdc42 (500 nM) was pre-incubated with varying concentrations of GTPγS (1 to 500 nM). Rac1 and RhoA GTPases were pre-equilibrated with GTP […]S in the same manner.
(§2) Fluorescence increase as a measure of CBD-cdc42 interaction—The functionality and specificity of mero-CBD was characterized by measuring fluorescence in the presence of saturating amounts of cdc42-GDP or cdc42-GTPγS. […] Negligible increase (<5%) was also observed in the presence of activated Rac1. No effect on the mero-CBD fluorescence was observed when RhoA-GTPγS was present. Furthermore, even in the presence of excess of activated Rac1 and RhoA, GDP- and GTPγS-bound forms of cdc42 were easily distinguished by CBD-A4C fluorescence (data not shown).

[2] = target: T2, Recombinant 6His-tagged cdc42 bound to GTPγS (UniProt P60953 1-191, limits assumed); assay: fluorescence of mero-CBD with saturating amounts of cdc42-GTPγS
T2 construct: Pre-equilibrated with GTPγS; also called cdc42-GTPγS; not shown: 6His tag
Protocol: as §1, §2

[3] = target: T2, Recombinant 6His-tagged cdc42 bound to …; assay: fluorescence of the solvatochromic dye on CBD, comparison of three cysteine mutants (FIG. 15)
Protocol: as §1

T2 sequence (P60953 whole entry): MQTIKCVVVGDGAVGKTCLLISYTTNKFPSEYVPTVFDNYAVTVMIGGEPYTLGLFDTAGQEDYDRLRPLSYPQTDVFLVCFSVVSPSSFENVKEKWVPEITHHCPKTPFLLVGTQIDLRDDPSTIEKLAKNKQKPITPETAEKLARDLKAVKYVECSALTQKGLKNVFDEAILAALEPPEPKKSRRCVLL
T1 sequence (P61586 whole entry): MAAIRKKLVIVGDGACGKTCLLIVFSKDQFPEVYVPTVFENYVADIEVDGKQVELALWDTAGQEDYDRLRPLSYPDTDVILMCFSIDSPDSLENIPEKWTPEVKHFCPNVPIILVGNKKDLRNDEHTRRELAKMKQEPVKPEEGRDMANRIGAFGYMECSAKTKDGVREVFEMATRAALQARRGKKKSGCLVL

binding result [1]: no binding
fold increase in excitation and emission maxima [2]: ~3.5 fold
fold fluorescence change on binding [3]: ~3.5 fold
B1: mero-CBD-F271C conjugate (Cdc42-binding fragment of human WASP, amino acids 201 to 321, F271C, C-terminal 6His fusion, labeled with the merocyanine dye of FIG. … (other)
chain: DIQNPDITSSRYRGLPAPGPSPADKKRSGKKKISKADIGAPSGFKHVSHVGWDPQNGFDVNNLDPDLRSLCSRAGISEAQLTDAETSKLIYDFIEDQGGLEAVRQEMRRQEPLPPPPPPSHHHHHH
modifications: chain 1 pos 71 (WASP 271): Cys carrying the thiol-reactive merocyanine dye of FIG. 11, written C
notes: Dye-to-protein ratio 0.8 to 1.2 for single-dye conjugates; also called CBD biosensor; CBD-mero
